Target: c-kit receptor (CD117), expressed on BJAB c-kit cells (Mus musculus) (UniProt P05532)
Assay: flow cytometry (cell titration, 0-100 nM)
Conditions: apparent Kd on BJAB c-kit cells, background subtracted; Aptamer folded in SELEX buffer (DPBS with Ca/Mg, 5 mM MgCl2, 0.45% glucose, tRNA), 95 C then …; binding in DPBS with Ca/Mg + 0.1% BSA, 1 h on ice; FAM

Chain of UniProt P05532 (P05532 25-979): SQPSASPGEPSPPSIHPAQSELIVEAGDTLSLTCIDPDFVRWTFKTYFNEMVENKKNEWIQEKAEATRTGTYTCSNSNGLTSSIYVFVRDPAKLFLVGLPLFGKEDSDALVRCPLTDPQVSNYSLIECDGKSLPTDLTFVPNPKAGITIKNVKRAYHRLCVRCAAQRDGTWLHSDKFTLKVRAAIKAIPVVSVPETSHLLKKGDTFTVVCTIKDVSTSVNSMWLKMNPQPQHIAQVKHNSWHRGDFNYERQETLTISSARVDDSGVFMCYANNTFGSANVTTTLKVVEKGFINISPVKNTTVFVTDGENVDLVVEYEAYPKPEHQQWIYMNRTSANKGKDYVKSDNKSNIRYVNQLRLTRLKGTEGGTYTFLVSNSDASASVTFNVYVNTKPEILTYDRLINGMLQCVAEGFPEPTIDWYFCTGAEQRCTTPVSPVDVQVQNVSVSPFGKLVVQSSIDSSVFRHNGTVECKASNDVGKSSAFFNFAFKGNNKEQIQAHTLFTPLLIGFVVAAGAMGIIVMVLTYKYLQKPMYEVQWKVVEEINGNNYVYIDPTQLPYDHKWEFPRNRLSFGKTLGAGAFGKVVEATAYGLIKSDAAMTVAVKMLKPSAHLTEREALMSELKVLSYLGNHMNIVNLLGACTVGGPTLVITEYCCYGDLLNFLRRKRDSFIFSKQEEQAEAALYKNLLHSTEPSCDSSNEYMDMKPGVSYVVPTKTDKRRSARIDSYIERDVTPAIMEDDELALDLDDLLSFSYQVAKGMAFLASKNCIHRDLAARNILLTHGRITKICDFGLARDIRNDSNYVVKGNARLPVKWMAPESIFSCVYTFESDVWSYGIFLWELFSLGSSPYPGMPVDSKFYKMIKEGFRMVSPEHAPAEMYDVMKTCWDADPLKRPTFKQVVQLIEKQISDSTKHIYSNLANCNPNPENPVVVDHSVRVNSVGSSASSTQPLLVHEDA

Sequence: AGCAGCACAGAGGTCAGATGGCTCAACGCGGGACGGCTCTCCCATTGACCCTATGCGTGCTACCGTGAA [Kit-129]
- Kd: 12.2 nM

From article PMC3742456
